Assay results: US20130224798A1

Target: Toll-like Receptor 5 (TLR5) constitutively expressed by HEK293 cells (UniProt O60602)
Assay: cell-based or functional assay

Binder	TLR5 activity (EC50, ng/ml) [ng/mL]	TLR activity (EC50, ng/ml) [ng/mL]
STF2.HA1-1His(PR8), produced in E. coli (protein) MAQVINTNSLSLLTQNNLNKSQSALGTAIERLSSGLRINSAKDDAAGQAIANRFTANIKGLTQASRNANDGISIAQTTEGALNEINNNLQRVRELAVQSANSTNSQSDLDSIQAEITQRLNEIDRVSGQTQFNGVKVLAQDNTLTIQVGANDGETIDIDLKQINSQTLGLDSLNVQKAYDVKDTAVTTKAYANNGTTLDVSGLDDAAIKAATGGTNGTASVTGGAVKFDADNNKYFVTIGGFTGADAAKNGDYEVNVATDGTVTLAAGATKTTMPAGATTKTEVQELKDTPAVVSADAKNALIAGGVDATDANGAELVKMSYTDKNGKTIEGGYALKAGDKYYAADYDEATGAIKAKTTSYTAADGTTKTAANQLGGVDGKTEVVTIDGKTYNASKAAGHDFKAQPELAEAAAKTTENPLQKIDAALAQVDALRSDLGAVQNRFNSAITNLGNTVNNLSEARSRIEDSDYATEVSNMSRAQILQQAGTSVLAQANQVPQNVLSLLASHNGKLCRLKGIAPLQLGKCNIAGWLLGNPECDPLLPVRSWSYIVETPNSENGICYPGDFIDYEELREQLSSVSSFERFEIFPKESSWPNHNTNGVTAACSHEGKSSFYRNLLWLTEKEGSYPKLKNSYVNKKGKEVLVLWGIHHPPNSKEQQNLYQNENAYVSVVTSNYNRRFTPEIAERPKVRDQAGRMNYYWTLLKPGDTIIFEANGNLIAPMYAFALSRGFGSGIITSNASMHECNTKCQTPLGAINSSLPYQNIHPVTIGECPKYVRHHHHHH	0.2	–
ngSTF2.HA1-1His(PR8), produced in Baculovirus (protein) AQVINTNSLSLLTQNNLQKSQSALGTAIERLSSGLRINSAKDDAAGQAIANRFTANIKGLTQASRNANDGISIAQTTEGALNEINNNLQRVRELAVQSAQSTNSQSDLDSIQAEITQRLNEIDRVSGQTQFNGVKVLAQDNTLTIQVGANDGETIDIDLKQINSQTLGLDSLNVQKAYDVKDTAVTTKAYANQGTTLDVSGLDDAAIKAATGGTQGTASVTGGAVKFDADNNKYFVTIGGFTGADAAKNGDYEVNVATDGTVTLAAGATKTTMPAGATTKTEVQELKDTPAVVSADAKNALIAGGVDATDANGAELVKMSYTDKNGKTIEGGYALKAGDKYYAADYDEATGAIKAKTTSYTAADGTTKTAANQLGGVDGKTEVVTIDGKTYQASKAAGHDFKAQPELAEAAAKTTENPLQKIDAALAQVDALRSDLGAVQNRFNSAITNLGNTVNQLSEARSRIEDSDYATEVSQMSRAQILQQAGTSVLAQANQVPQNVLSLLASGSGSGSSHNGKLCRLKGIAPLQLGKCNIAGWLLGNPECDPLLPVRSWSYIVETPNSENGICYPGDFIDYEELREQLSSVSSFERFEIFPKESSWPNHNTNGVTAACSHEGKSSFYRNLLWLTEKEGSYPKLKNSYVNKKGKEVLVLWGIHHPPNSKEQQNLYQNENAYVSVVTSNYNRRFTPEIAERPKVRDQAGRMNYYWTLLKPGDTIIFEANGNLIAPMYAFALSRGFGSGIITSQASMHECNTKCQTPLGAIQSSLPYQNIHPVTIGECPKYVRHHHHHH	–	30
STF2.HA1-2His(PR8), produced in Baculovirus (protein) AQVINTNSLSLLTQNNLNKSQSALGTAIERLSSGLRINSAKDDAAGQAIANRFTANIKGLTQASRNANDGISIAQTTEGALNEINNNLQRVRELAVQSANSTNSQSDLDSIQAEITQRLNEIDRVSGQTQFNGVKVLAQDNTLTIQVGANDGETIDIDLKQINSQTLGLDSLNVQKAYDVKDTAVTTKAYANNGTTLDVSGLDDAAIKAATGGTNGTASVTGGAVKFDADNNKYFVTIGGFTGADAAKNGDYEVNVATDGTVTLAAGATKTTMPAGATTKTEVQELKDTPAVVSADAKNALIAGGVDATDANGAELVKMSYTDKNGKTIEGGYALKAGDKYYAADYDEATGAIKAKTTSYTAADGTTKTAANQLGGVDGKTEVVTIDGKTYNASKAAGHDFKAQPELAEAAAKTTENPLQKIDAALAQVDALRSDLGAVQNRFNSAITNLGNTVNNLSEARSRIEDSDYATEVSNMSRAQILQQAGTSVLAQANQVPQNVLSLLASGSGSGSKGIAPQLGKCNIAGWLLGNPECDPLLPVRSWSYIVETPNSENGICYPGDFIDYEELREQLSSVSSFERFEIFPKESSWPNHNTNGVTAACSHEGKSSFYRNLLWLTEKEGSYPKLKNSYVNKKGKEVLVLWGIHHPPNSKEQQNLYQNENAYVSVVTSNYNRRFTPEIAERPKVRDQAGRMNYYWTLLKPGDTIIFEANGNLIAPMYAFALSRGFGSGIITSHHHHHH	–	9
STF2.HA1-2mutHis(PR8), produced in Baculovirus (protein) AQVINTNSLSLLTQNNLNKSQSALGTAIERLSSGLRINSAKDDAAGQAIANRFTANIKGLTQASRNANDGISIAQTTEGALNEINNNLQRVRELAVQSANSTNSQSDLDSIQAEITQRLNEIDRVSGQTQFNGVKVLAQDNTLTIQVGANDGETIDIDLKQINSQTLGLDSLNVQKAYDVKDTAVTTKAYANNGTTLDVSGLDDAAIKAATGGTNGTASVTGGAVKFDADNNKYFVTIGGFTGADAAKNGDYEVNVATDGTVTLAAGATKTTMPAGATTKTEVQELKDTPAVVSADAKNALIAGGVDATDANGAELVKMSYTDKNGKTIEGGYALKAGDKYYAADYDEATGAIKAKTTSYTAADGTTKTAANQLGGVDGKTEVVTIDGKTYNASKAAGHDFKAQPELAEAAAKTTENPLQKIDAALAQVDALRSDLGAVQNRFNSAITNLGNTVNNLSEARSRIEDSDYATEVSNMSRAQILQQAGTSVLAQANQVPQNVLSLLASGSGSGSKGAAPLQLGKCNIAGWLLGNPECDPLLPVRSWSDIAETPNSENGICYPGDFIDYEELREQLSSVSSFERFEIFPKESSWPNHNTNGVTAACSHEGKSSFYRNLLWLTEKEGSYPKLKNSYVNKKGKEVLVLWGIHHPPNSKEQQNLYQNENAYVSVVTSNYNRRFTPEIAERPKVRDQAGRMNYYWTLLKPGDTIIFEANGNLIAPMYAFALSRGFGSGIITSHHHHHH	–	900
ngSTF2.HA1-2mutHis(PR8), produced in Baculovirus (protein) AQVINTNSLSLLTQNNLQKSQSALGTAIERLSSGLRINSAKDDAAGQAIANRFTANIKGLTQASRNANDGISIAQTTEGALNEINNNLQRVRELAVQSAQSTNSQSDLDSIQAEITQRLNEIDRVSGQTQFNGVKVLAQDNTLTIQVGANDGETIDIDLKQINSQTLGLDSLNVQKAYDVKDTAVTTKAYANQGTTLDVSGLDDAAIKAATGGTQGTASVTGGAVKFDADNNKYFVTIGGFTGADAAKNGDYEVNVATDGTVTLAAGATKTTMPAGATTKTEVQELKDTPAVVSADAKNALIAGGVDATDANGAELVKMSYTDKNGKTIEGGYALKAGDKYYAADYDEATGAIKAKTTSYTAADGTTKTAANQLGGVDGKTEVVTIDGKTYQASKAAGHDFKAQPELAEAAAKTTENPLQKIDAALAQVDALRSDLGAVQNRFNSAITNLGNTVNQLSEARSRIEDSDYATEVSQMSRAQILQQAGTSVLAQANQVPQNVLSLLASGSGSGSKGAAPQLGKCNIAGWLLGNPECDPLLPVRSWSDIAETPNSENGICYPGDFIDYEELREQLSSVSSFERFEIFPKESSWPNHNTNGVTAACSHEGKSSFYRNLLWLTEKEGSYPKLKNSYVNKKGKEVLVLWGIHHPPNSKEQQNLYQNENAYVSVVTSNYNRRFTPEIAERPKVRDQAGRMNYYWTLLKPGDTIIFEANGNLIAPMYAFALSRGFGSGIITSHHHHHH	–	9
